Experimental findings from publication doi:10.1101/543108 are described below.

This assay has as its target ATP synthase c-subunit (c10-ring) (Polytomella sp.). The assay can be described thus: cryo-EM structure.

For the substance “ATP synthase c-subunit (c10-ring) (natural protein)”, the stoichiometry N turned out to be 10.
